According to patent US20230137139A1, “BIOSYNTHESIS OF CANNABINOIDS AND C[…]” (priority 2020, published 2023):
Substitutions are numbered along the chain they refer to.

B1: t865771 (protein)
chain: MGNTTSIAGRDCLISALGGNSALAVFPNELLWTADVHEYNLNLPVTPAAITYPETAAQIAGVVKCASDYDYKVQARSGGHSFGNYGLGGADGAVVVDMKHFTQFSMDDETYEAVIGPGTTLNDVDIELYNNGKRAMAHGVCPTIKTGGHFTIGGLGPTARQWGLALDHVEEVEVVLANSSIVRASNTQNQDVFFAVKGAAANFGIVTEFKVRTEPAPGLAVQYSYTFNLGSTAEKAQFVKDWQSFISAKNLTRQFYNNMVIFDGDIILEGLFFGSKEQYDALGLEDHFAPKNPGNILVLTDWLGMVGHALEDTILKLVGNTPTWFYAKSLGFRQDTLIPSAGIDEFFEYIANHTAGTPAWFVTLSLEGGAINDVAEDATAYAHRDVLFWVQLFMVNPVGPISDTTYEFTNGLYDVLARAVPESVGHAYLGCPDPRMEDAQQKYWRTNLPRLQELKEELDPKNTFHHPQGVMPA
modifications: expressed in S. cerevisiae strain
B2: t865739 (protein)
chain: B1 chain with N410D, R450K
B3: t865750 (protein)
chain: B1 chain with S180T, N410D
modifications: expressed in S. cerevisiae strain
B4: t878464 (protein)
chain: B1 chain with R183T, N410D
modifications: expressed in S. cerevisiae strain
B5: t865689 (protein)
chain: B1 chain with N122G, I126R, N410D
B6: t865690 (protein)
chain: B1 chain with N122A, I126T, N410D
B7: t865749 (protein)
chain: B1 chain with Y71I, N410D
modifications: expressed in S. cerevisiae strain
B8: t865728 (protein)
chain: B1 chain with H287R, A341S, N410D
B9: t865805 (protein)
chain: B1 chain with T55S, I126T, N410D
modifications: expressed in S. cerevisiae strain
B10: t865711 (protein)
chain: B1 chain with N122G, V398F, N410D
B11: t878470 (protein)
chain: B1 chain with A57Q, G61A, N410D
modifications: expressed in S. cerevisiae strain

Experiments:
[1] = test system: CBCVA, THCVA, and CBDVA production; test: In vivo TS activity assay, Example 2 protein engineering of A. niger CBCAS, cultures fed divaric acid; assay type: cell-based, S. cerevisiae; details: for Mean CBCVA / Mean CBDVA / Mean THCVA: S. cerevisiae strains expressing A. niger CBCAS mutants; for Mean CBCVA / Mean CBDVA / Mean THCVA / average CBCVA titer compared with the A. niger positive control: secondary screen; for Mean CBCVA / Mean CBDVA / Mean THCVA / % CBCVA / % CBDVA / % THCVA: fed divaric acid; for % CBCVA / % CBDVA / % THCVA: share of terminal cannabinoid product profile
Protocol: (§1) An assay to detect TS activity was conducted as follows: each thawed glycerol stock of candidate CBCAS transformants was stamped into a well of YEP+4% dextrose media. Samples were incubated at 30° C. in a shaking incubator for 2 days. A portion of each of the resulting cultures was stamped into a well of YEP+4% galactose+1 mM olivetolic acid (FIG. 1 Structure 6a). Samples were incubated at 20° C. and shaken in a shaking incubator for 4 days. Every 24 hours during those 4 days, 2% galactose and 1 mM olivetolic acid were spiked into the cultures. Sodium citrate buffer adjusted to pH 5.5 was added to each well at a final concentration of 100 mM. Samples were incubated at 20° C. and shaken in a shaking incubator for 2 days. A portion of each of the resulting production cultures was stamped into a well of phosphate buffered saline (PBS). Optical measurements were taken on a plate reader, with absorbance measured at 600 nm and fluorescence at 528 nm with 485 nm excitation. Samples were incubated at 30° C. in a shaking incubator for 2 days. 100% methanol was stamped into the production cultures in half-height deepwell plates. Plates were heat sealed and frozen. Samples were then thawed for 30 min and spun down at 4° C. A portion of the supernatant was stamped into half-area 96 well plates. CBCA, THCA, and CBDA production in the samples was quantified via liquid chromatography-mass spectrometry (LC-MS).
(§2) To determine whether engineering of the A. niger CBCAS identified in Example 1 (corresponding to SEQ ID NO: 29 (with signal peptides); SEQ ID NO: 27 (without signal peptides and including an N-terminal methionine (UniProt accession No. A0A254UC34)); or SEQ ID NO: 25 (without signal peptides and without the N-terminal methionine)), could alter CBCAS substrate specificity, product specificity and/or amounts of products produced, point mutations were generated in A. niger CBCAS and the mutant versions of the protein were expressed in S. cerevisiae. A library containing 1047 A. niger CBCAS mutants was generated and screened. As in Example 1, each CBCAS mutant in the library, as well as the enzymes expressed by positive control strains, included an N-terminal MFalpha2 signal peptide (SEQ ID NO: 16) (with a methionine residue added at the N-terminus of the MFalpha2 signal peptide) and a C-terminal HDEL signal peptide (SEQ ID NO: 17).
(§3) Of the original 1047 library members, 55 strains were elevated to a secondary screen to verify CBCA production. The experimental protocol for the secondary screen was identical to the primary screen, except that additional biological replicates were included per strain, and replicate production cultures for each strain were separately fed 1 mM boluses of olivetolic acid or 1 mM boluses of divaric acid. All strains were screened in quadruplicate.

[2] = test system: CBCA, THCA, and CBDA production; test: In vivo TS activity assay, Example 2 protein engineering of A. niger CBCAS, cultures fed olivetolic acid; assay type: cell-based, S. cerevisiae; details: for average CBCA titer compared with the A. niger positive control / Mean CBCA / Mean CBDA / Mean THCA: secondary screen; for Mean CBCA / Mean CBDA / Mean THCA: olivetolic acid (Table 8); for % CBCA / % CBDA / % THCA: share of terminal cannabinoid product profile
Protocol: as §1, §2
Production of compounds of Formulae (9), (10), and/or (11), including compounds of Formulae (9a), (10a), and/or (11a) by strains expressing the mutated versions of A. niger CBCAS was quantified and compared to the production of the same compounds by a strain expressing wild-type A. niger CBCAS, a strain expressing a C. sativa THCAS, and a strain expressing a C. sativa CBDAS. The strains were screened using the same assay described in Example 1. Production of CBCA, THCA, and/or CBDA in the samples was quantified via LC-MS.
as §3

Molecule	Mean CBCVA [1]	Mean CBDVA [1]	Mean THCVA [1]	% CBCVA [1]	% CBDVA [1]	% THCVA [1]	average CBCA titer compared with the A. niger positive control [2]	Mean CBCA [2]	Mean CBDA [2]	Mean THCA [2]	% CBCA [2]	% CBDA [2]	% THCA [2]	average CBCVA titer compared with the A. niger positive control [1]
B1	1592.02 µg/L	0.00 µg/L	968.82 µg/L	62.17%	0.00%	37.83%	higher	40971.16 µg/L	8309.68 µg/L	2638.90 µg/L	78.91%	16.00%	5.08%	
B2	4265.42 µg/L	0.00 µg/L	2039.44 µg/L	67.65%	0.00%	32.35%	higher	40214.21 µg/L	10767.85 µg/L	2538.89 µg/L	75.14%	20.12%	4.74%	higher
B3	5745.78 µg/L	0.00 µg/L	2770.13 µg/L	67.47%	0.00%	32.53%	higher	39940.41 µg/L	10807.90 µg/L	2475.89 µg/L	75.04%	20.31%	4.65%	higher
B4	5383.16 µg/L	0.00 µg/L	2710.86 µg/L	66.51%	0.00%	33.49%	higher	38911.71 µg/L	9203.22 µg/L	2062.10 µg/L	77.55%	18.34%	4.11%	higher
B5	6333.32 µg/L	0.00 µg/L	2791.18 µg/L	69.41%	0.00%	30.59%	higher	38241.90 µg/L	10157.65 µg/L	2452.92 µg/L	75.20%	19.97%	4.82%	higher
B6	2557.72 µg/L	0.00 µg/L	1441.19 µg/L	63.96%	0.00%	36.04%	higher	38065.26 µg/L	8288.48 µg/L	2186.36 µg/L	78.42%	17.08%	4.50%	
B7	2230.06 µg/L	0.00 µg/L	997.07 µg/L	69.10%	0.00%	30.90%	higher	37290.06 µg/L	6071.00 µg/L	2140.74 µg/L	81.95%	13.34%	4.70%	
B8	3907.72 µg/L	0.00 µg/L	1759.32 µg/L	68.96%	0.00%	31.04%	higher	36875.12 µg/L	8996.37 µg/L	2692.19 µg/L	75.93%	18.52%	5.54%	higher
B9	3077.84 µg/L	0.00 µg/L	1538.55 µg/L	66.67%	0.00%	33.33%	higher	34567.68 µg/L	8917.97 µg/L	2285.23 µg/L	75.52%	19.48%	4.99%	
B10	2442.93 µg/L	0.00 µg/L	1315.45 µg/L	65.00%	0.00%	35.00%	higher	33994.02 µg/L	9666.71 µg/L	2096.22 µg/L	74.29%	21.13%	4.58%	
B11	3226.77 µg/L	0.00 µg/L	1646.54 µg/L	66.21%	0.00%	33.79%	higher	64502.70 µg/L	10538.52 µg/L	2739.24 µg/L	82.93%	13.55%	3.52%	
